Measured values taken from US20100322948A1, “Bone morphogenetic protein (BMP)-binding domains of proteins of the repulsive guidance molecule (RGM) protein family and functional fragments thereof, and use of same” (ABBOTT GMBH & CO. KG, priority 2007, published 2010).
“Also recorded” adds a separate entry of the source.

Test system: NTera-2 cells
Experiment: Neurite growth test using NTera-2 cells (test method 2)
Assay type: cell-based, human
Details: FIG. 7B
Source text: Test Method 2: Illustration of the Effect of RGM Peptides in the Neurite Growth Test, Using NTera-2 Cells
The human pluripotent cancer cell line NTera2 (DSMZ ACC527) is established as a cell culture model. Neurites grow from cell aggregates and form a corona of neurites around the particular aggregate.
NTera-2 cells are human embryonic teratocarcinoma cells. A carcinoma is a cancerous tumor, whereas a teratoma or teratocarcinoma is a mixed tumor of the germ cells composed of various differentiated and undifferentiated tissues, and therefore, the same as for the SH-SY5Y culture, comprises a heterogeneous population. The tumor is usually present in an encapsulated form in the various types, such as hair, skin, teeth, muscle, and nerve tissue. The tumors typically originate in the ovaries, testes, abdominal cavity, or brain. The cell line was cloned from the Tera-2 line, obtained from a metastatic teratocarcinoma in a person.
NTera-2 cells are epithelial, adherently growing cells which form a monolayer. Due to the large number of granular particles which they contain, NTera-2 cells may be easily differentiated from the other cells. The cells were cultivated by 1:5 splitting twice a week. The cells of this mixed culture may be differentiated using retinoic acid in neuronal cells.
Culture Medium Fur Growth […]
In order to differentiate the cells it was necessary to introduce antibiotic into the culture medium of the cell line due to the fact that the cells remained in the same culture flask for three weeks. Previously, the undifferentiated culture had been detrypsinated and the cell count determined using a Neubauer counting chamber. […] 25 μL retinoic acid (10 μM) was readded to the medium under dim light conditions. […]
The culture was stored in an incubator at 37° C. with 5% CO2 gassing, and the medium was changed at the beginning and at the end of the week. […] After three weeks the cells were differentiated and were ready for use in experiments. […]
Different plate formats were used for the tests. For the isolation of protein, 6-well plates were necessary for recovering a sufficient quantity. […]

B1: fragment #786: Fc fusion protein of human RGM A amino acids 47-168 (protein)
chain: PCKILKCNSEFWSATSGSHAPASDDTPEFCAALRSYALCTRRTARTCRGDLAYHSAVHGIEDLMSQHNCSKDGPTSQPRLRTLPPAGDSQERSDSPEICHYEKSFHKHSATPNYTHCGLFGD
modifications: left off: small tags and cut ends; a dimerising Fc or GST
  inhibition of neurite growth: inhibit the neurite growth
Listed as 47-168-Fc
  inhibitory activity in neurite growth test compared with 316-386-Fc: much stronger effect; also recorded: significantly higher activity
